B1: 1ZHC (parent)
chain: HEFRDEISVLKANNPHFDKIFEKHNQLDDDIKTAEQQNASDAEVSHMKKQKLKLKDEIHSMIIEYREK

Variants of: B1
Assay: folding stability dG (cDNA display proteolysis); higher = more stable
Settings: PBS, room temperature

Folding stability dG [kcal/mol]: each site, then its substitutions
S45: W 0.834; N 1.05; L 0.524; H 0.845; M 1.01; K 0.976; T 1.34; F 0.625; D 0.937; Y 0.766; G 0.349; A 1.09; R 0.873; V 0.431; C 1.15; E 1.07; I 0.788
K55: R 1.51; C 2.15; M 1.72; W 2.94; V 0.758; D 0.359; E 0.926; L 1.45; Q 1.28; Y 1.47; I 1.09; G 0.766; T 0.273; H 1.27; N 0.726; F 1.65; S 1.14; A 1.67
M47: A -0.981; V -0.869; Y -0.412; C -0.078; L 1.59; W 0.576; I -0.393
S60: C 1.18; R 1.65; G 0.362; Q 1.2; K 1.51; D 0.536; Y 0.561; W 0.696; H 0.79; A 1.48; I 0.697; L 0.991; N 0.933; F 0.717; M 1.29; V 0.267; E 0.466; T 0.912
L52: M 1.28; K 0.948; I 0.913; T 0.288; G -0.063; E 1.17; Q 1.28; Y 0.359; V 0.329; D 1.02; S 0.812; A 1.08; N 0.952; W 0.394; H 0.494; F 0.588; C 0.71
K49: Q 1.27; S 0.881; I 1.18; T 0.971; A 1.29; Y 1.2; F 0.439; E 0.919; W 0.556; G 0.492; V 0.867; M 1.19; H 0.527; N 0.588; L 0.949; R 1.03; C 1.11; D 0.75
K53: I 0.711; L 1.16; P -0.251; Y 0.301; V 0.811; S 0.351; M 1.05; T 0.66; W 0.603; F 0.261; R 0.995; C 0.879; D -0.039; E 0.543; H 0.266; A 1.12; Q 0.53; N -0.015
A39: Y 0.83; W 1.3
S40: E 0.469; L 0.393; A 0.255; R 0.251; D 0.774; T -0.074; Q 0.039; K 0.104; I -0.234; Y -0.236; G 0.619; C 0.351; P 0.855; W -0.874; N 1.12; V -0.512; H 0.256; M -0.003; F 0.13
M61: A -0.996; F 0.209; H 0.422; C -0.322
H59: V 1.3; Q 0.83; I 1.83; M 1.92; K 0.399; A 0.525; F 1.43; R 1.04; Y 1.61; L 2.03; N 0.996; T 1.06; D 1.11; E 1.21; S 0.624; W 1.83
E43: F 1.07; A 0.759; I 1.27; M 1.12; G -0.301; W 1.26; L 1.14; T 0.763; D 1.26; R 1.08; H 0.621; V 1.22; S 0.44; C 1.01; Y 1.2; K 1.24; N 0.299; Q 0.669
E57: I 0.87; T 0.674; C 0.959; L 0.992; D -0.8; H -0.994; W 0.602; A 0.703; Q 0.719; M 1.16; K 0.212; V 0.286; R -0.034; S -0.103; Y 0.52; F -0.51
A42: L 0.464; H 0.433; T 0.44; P 0.446; D 0.989; Y 0.635; G 0.074; W 0.189; N 0.432; S 0.359; F 0.065; V 0.662; E 1.26; M 0.539; R -0.079; Q 0.718; K 0.633; I 0.572; C 0.68
D41: V 0.775; M 0.722; W 0.916; S 1.03; L 0.874; K 0.873; C 0.771; F 0.919; A 1.23; I 0.951; E 1.33; T 0.736; G 0.41; N 0.532; P 1.28; Q 0.972; H 0.871; R 0.76; Y 0.879
L54: W -0.913; I -0.626; Y 0.165; M -0.648; C -0.495
Q50: M 1; E 0.976; G -0.255; C 1.12; W 0.792; R 0.642; K 0.22; S -0.299; T 0.433; Y 0.509; V 0.067; A 0.475; I 0.757; F 0.915; L 1.55; N -0.038; H 0.479
K51: S 0.403; N -0.683; L 2.36; V 0.721; I 1.3; Y 1.5; H 0.299; E -0.779; F 1.65; Q 0.766; W 1.57; R 1.29; M 1.52; C 0.855; G -0.631; A 0.915
I58: W -0.545; V -0.599; C 0.015; F 0.304; H -0.628; M 0.19; R -0.534; L 0.496
V44: K -0.664; C -0.468; L 1.37; S -0.907; Y -0.518; M 0.497; I 1.57; T -0.308; R -0.295; G 0.622
H46: R 1.97; V 0.657; I 1.23; N 1.14; T 0.889; S 1.28; E 1.47; C 1.09; L 1.36; P -0.278; Y 1.19; G 0.785; F 1.02; W 1.29; D 0.734; A 1.5; Q 1.17; M 1.1; K 1.46
D56: V 1.02; Y 1.5; C 1.36; M 1.57; L 1.61; K 1.22; N 1.07; S 0.621; R 1.21; W 1.39; H 1.07; G 0.971; A 1.27; Q 1.51; T 0.838; E 1.29; I 1.25; F 1.18
K48: W 0.118; C 0.421; M 0.757; A 0.086; N -0.844; I 0.568; E -0.818; Q 0.238; L 0.4; S -0.947; Y 0.617; R 0.398; F 0.266; V 0.419; T 0.032
